# “And” between values parts separate entries of the source, which are not always exact repeats. Equal values may be shown once.
# Key:
# [1] = target: α-Synuclein preformed fibrils (α-Syn PFF) (mouse) (UniProt O55042); test: ELISA
# [2] = target: α-Synuclein preformed fibrils (α-Syn PFF) (mouse) (UniProt O55042); test: SPR
# Chain of ΔLRR hNOD2-Fc (Q9HC29 whole entry, stated change not applied, the tested form may be a part): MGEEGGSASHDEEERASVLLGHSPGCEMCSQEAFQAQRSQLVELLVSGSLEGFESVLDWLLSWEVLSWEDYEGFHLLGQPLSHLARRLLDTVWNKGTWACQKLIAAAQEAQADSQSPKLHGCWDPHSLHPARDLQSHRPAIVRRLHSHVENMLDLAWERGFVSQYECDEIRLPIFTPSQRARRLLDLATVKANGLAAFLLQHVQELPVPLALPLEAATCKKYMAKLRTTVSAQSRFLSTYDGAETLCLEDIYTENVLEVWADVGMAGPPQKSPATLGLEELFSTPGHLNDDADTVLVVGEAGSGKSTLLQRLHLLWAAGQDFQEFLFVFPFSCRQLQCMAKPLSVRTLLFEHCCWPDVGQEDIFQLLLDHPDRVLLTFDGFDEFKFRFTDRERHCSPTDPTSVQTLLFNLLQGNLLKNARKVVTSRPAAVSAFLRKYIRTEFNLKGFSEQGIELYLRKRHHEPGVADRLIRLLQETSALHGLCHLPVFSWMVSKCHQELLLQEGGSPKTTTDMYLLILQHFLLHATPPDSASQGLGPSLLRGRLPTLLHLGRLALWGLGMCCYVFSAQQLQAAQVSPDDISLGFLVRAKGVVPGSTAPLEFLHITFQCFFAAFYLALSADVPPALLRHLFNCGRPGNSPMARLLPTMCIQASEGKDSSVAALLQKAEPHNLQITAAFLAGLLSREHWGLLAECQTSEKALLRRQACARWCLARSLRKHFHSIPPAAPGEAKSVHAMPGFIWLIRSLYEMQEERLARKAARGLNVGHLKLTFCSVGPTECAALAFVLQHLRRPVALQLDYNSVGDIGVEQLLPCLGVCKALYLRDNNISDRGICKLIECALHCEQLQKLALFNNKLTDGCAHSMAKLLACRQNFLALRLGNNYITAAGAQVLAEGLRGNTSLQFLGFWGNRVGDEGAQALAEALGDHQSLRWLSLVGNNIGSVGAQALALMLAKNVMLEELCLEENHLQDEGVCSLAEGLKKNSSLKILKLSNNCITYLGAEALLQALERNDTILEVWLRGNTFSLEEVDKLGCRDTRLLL
Kd [1],Kd [2],Substance
2810 nM,–,ΔLRR hNOD2-Fc (from UniProt Q9HC29 1-1040) (Fc fusion)
–,807 nM and 1190 nM,FL hNOD2 with the Fc-tag removed by HRV 3C protease (from UniProt Q9HC29 1-1040) (natural protein)
1200 nM,–,human IgG1 Fc-tagged human NOD2 full-length (FL hNOD2-Fc) (from UniProt Q9HC29 1-1040) (Fc fusion)

# — publication doi:10.1101/2024.02.19.580982
